Seven molecules from PMC13408441, “Molecular regulation and physiological role of GOLPH3-mediated Golgi retention” (Nature Communications, 2026) can be followed below.

Entries after “also recorded” stand apart in the source; their conditions may differ.

The test system of data set [1] is LCS. In words: ITC of GOLPH3 mutants with LCS peptide. In kind it is binding. The note with it: 25 °C, pH 8.0, relative to non-mutated GOLPH3. On the procedure: (§1) Supplemental Material for Theodoropoulou, Nasrallah, et al 2026
(§2) Isothermal titration calorimetry
(§3) Isothermal titration calorimetry (ITC) experiments were performed on a MicroCal PEAQ-ITC (Malvern Panalytical), with GOLPH3 variants being in a buffer containing 250 mM NaCl, 50 mM Tris pH 8.0 and 1 mM TCEP. LCS peptides were synthesised and delivered as lyophilised powder (Genscript). The peptides were dissolved in the protein buffer and their concentrations were calculated based upon their absorbance at 280 nm and their corresponding molar extinction coefficient. Experiments consisted of titrations of a single 0.4 µL injection followed […]
(§4) GOLPH3 proteins at a 100 μM concentration. Experiments were performed at 25 °C in triplicate (n = 3), with injection duration of 4 s, injection spacing of 150 s, stir speed of 750 rpm, and reference power of 7 μcal/s. Data were processed and plotted using MicroCal PEAQ‐ITC Analysis Software and fitted to a one‐site binding model.
(§5) Circular Dichroism Spectroscopy
(§6) Circular Dichroism Spectra of GOLPH3 proteins (at 10 μM in 100 mM NaCl, 50 mM Tris pH 7.4 and 1 mM TCEP) were collected with a Chirascan V100 (AppliedPhotophysics), using a 1 mm path length cuvette, at 20 °C, in the 200-260 nm range. Thermal denaturation experiments […]
(§7) every 1 °C, with a temperature ramp speed of 1 °C/min and an equilibration time of […]
(§8) Table S2: Fits of CD spectra to fractions of secondary structure for Golph3 WT and various mutants of it, carried out with the BestSel server

Data set [2] is described as follows: CD secondary structure of GOLPH3 proteins (BestSel fits). The class given is physicochemical, human. The settings on record: 10 μM, 100 mM NaCl, 50 mM Tris pH 7.4, 1 mM TCEP, 20 °C. The protocol: as §1
Isothermal titration calorimetry […]
as §5, §6, §7, §8

The test system of data set [3] is HeLa cells. In words: Immunofluorescence of GOLPH3 Golgi localization. The settings on record: quantitative immunofluorescence. In kind it is cell-based, human. On the procedure: as §1
(Sigma, E4382), 5 mL of 1% Phloxine B (Fluka, 28550), 360 mL of 95% ethanol, and 2 mL of glacial acetic acid. Slides were then washed in distilled water, dehydrated, cleared in xylene, and mounted using Eukitt mounting medium (Sigma-Aldrich).
For Alcian Blue staining, sections were deparaffinized, rehydrated, and incubated for 25 minutes at room temperature in 1% Alcian Blue (Sigma-Aldrich, A5268) dissolved in 3% acetic acid (pH 2.5). The solution was filtered prior to use and prepared by dissolving 5 g of Alcian Blue in 500 mL of 3% glacial acetic acid. After staining, slides were washed in running tap water for 5 minutes and briefly rinsed in distilled water. Nuclei were counterstained with 0.1% nuclear fast red (Vector Laboratories, H-3403) for 5 minutes, followed by rinsing, dehydration, clearing, and mounting with Eukitt. Acidic mucopolysaccharides and mucins […]
Immunofluorescence and confocal microscopy
HeLa GOLPH3-KO cells transfected with the different GOLPH3 constructs were plated at approximately 50% confluency post-transfection. Cells were washed with PBS, fixed in 4% paraformaldehyde (PFA) for 20 minutes, washed with PBS, quenched with 50 mM NH4Cl for 10 minutes, and washed again with PBS. Cells were permeabilized with 0.05% saponin in PBS for 5 minutes. Subsequently, cells were washed and blocked with 3% BSA and 0.05% saponin in PBS for 30 minutes. Primary antibodies (anti-GOLPH3 and anti-GM130) and secondary antibodies were diluted in the same buffer. After blocking, coverslips were washed and incubated with primary antibodies overnight at 4 °C, washed in PBS, and incubated for 45 minutes with secondary antibodies. Cells were then washed and stained with Hoechst for nuclear visualization. Finally, coverslips were mounted in Prolong Glass Antifade Mountant.
Images were acquired using a Zeiss LSM 980 Inverted microscope with a 63X objective, a pinhole size of 1 AU and at least 2 line-averaging or alternatively using Oympus Evident FV4000. Super-resolution images were taken using Zeiss LSM980 with Airyscan2 module, with 63×oil-immersion objectives. Images were processed using Fiji (ImageJ). Cis-to-trans Golgi linescans were recorded using the “Color Profiler” plugin (Color_Profiler. jar, https://imagej.nih.gov/ij/plugins/color -profiler.html) in Fiji software.
Forty-eight hours after transfection, cells were harvested by trypsinization, fixed 10 minutes in 4% PFA/PBS, washed, and resuspended in PBS containing 1% BSA.

Data set [4] relates to GOLPH3-KO HeLa cells. In words: 3H-palmitate metabolic labeling of GOLPH3 mutants. In kind it is cell-based, human. The note with it: 3H-palmitic acid 3 h, autoradiography after immunoprecipitation. On the procedure: To detect palmitoylation, HeLa WT or GOLPH3-KO cells were transfected or not with different GOLPH3 constructs, incubated for 3 h in IM (Glasgow minimal essential medium buffered with 10 mM Hepes, pH 7.4) with 200 mCi/ml ^3H palmitic acid (9,10-^3H(N)) (American Radiolabeled Chemicals, Inc.). The cells were washed and directly lysed for immunoprecipitation with the anti-GOLPH3 rabbit antibody. […] After SDS-PAGE, the gel was incubated in a fixative solution (25% isopropanol, 65% H2O, 10% acetic acid), followed by a 30-min incubation with signal enhancer Amplify NAMP100 (GE Healthcare). […] Quantification of radioactive experiments was quantified using specific screens by autoradiography. The images shown for ^3H-palmitate labeling were however obtained using fluorography (indirect detection of radioactive emission by stimulated light emission from a fluorophore (Amplify) on film).

Data set [5] in a line: CD thermal denaturation of GOLPH3 proteins. In kind it is physicochemical, human. The settings on record: CD at 207 nm, 20 to 95 °C at 1 °C/min, 10 μM protein, 100 mM NaCl, 50 mM Tris pH 7.4, 1 mM TCEP. On the procedure:
as §1, §2, §3, §4, §5, §6, §7, §8

B1: D247A: GOLPH3 mutant D247A; recombinant in biophysics, transfected construct in cells (protein, UniProt Q9H4A6 1-298, looked up, variant D247A)
Golgi phosphoprotein 3: MTSLTQRSSGLVQRRTEASRNAADKERAAGGGAGSSEDDAQSRRDEQDDDDKGDSKETRLTLMEEVLLLGLKDREGYTSFWNDCISSGLRGCMLIELALRGRLQLEACGMRRKSLLTRKVICKSDAPTGDVLLDEALKHVKETQPPETVQNWIELLSGETWNPLKLHYQLRNVRERLAKNLVEKGVLTTEKQNFLLFDMTTHPLTNNNIKQRLIKKVQEAVLDKWVNDPHRMDRRLLALIYLAHASAVLENAFAPLLDEQYDLATKRVRQLLDLDPEVECLKANTNEVLWAVVAAFTK
Regarding B1, in data set [1], the “binding of GOLPH3 mutants to LCS” value was “reduced binding”. Moreover, in data set [2], the “% alpha” value is given as 36%, the “% beta parallel” value came out at 0%, the “% beta-antiparallel” value is 8% and the “% others” value is recorded as 44%. Also, the “% turn” value in data set [2] is reported as 12%.

B2: R90L: GOLPH3 mutant defective in PtdIns(4)P binding (protein, UniProt Q9H4A6 1-298, looked up, variant R90L)
Golgi phosphoprotein 3: MTSLTQRSSGLVQRRTEASRNAADKERAAGGGAGSSEDDAQSRRDEQDDDDKGDSKETRLTLMEEVLLLGLKDREGYTSFWNDCISSGLLGCMLIELALRGRLQLEACGMRRKSLLTRKVICKSDAPTGDVLLDEALKHVKETQPPETVQNWIELLSGETWNPLKLHYQLRNVRERLAKNLVEKGVLTTEKQNFLLFDMTTHPLTNNNIKQRLIKKVQEAVLDKWVNDPHRMDRRLLALIYLAHASDVLENAFAPLLDEQYDLATKRVRQLLDLDPEVECLKANTNEVLWAVVAAFTK
As for B2, in data set [3], the “Golgi localization of GOLPH3 mutants” value is reported as “largely abolished Golgi localization”.

B3: C108A: GOLPH3 S-acylation mutant C108A, transfected construct (protein, UniProt Q9H4A6 1-298, looked up, variant C108A)
Golgi phosphoprotein 3: MTSLTQRSSGLVQRRTEASRNAADKERAAGGGAGSSEDDAQSRRDEQDDDDKGDSKETRLTLMEEVLLLGLKDREGYTSFWNDCISSGLRGCMLIELALRGRLQLEAAGMRRKSLLTRKVICKSDAPTGDVLLDEALKHVKETQPPETVQNWIELLSGETWNPLKLHYQLRNVRERLAKNLVEKGVLTTEKQNFLLFDMTTHPLTNNNIKQRLIKKVQEAVLDKWVNDPHRMDRRLLALIYLAHASDVLENAFAPLLDEQYDLATKRVRQLLDLDPEVECLKANTNEVLWAVVAAFTK
With B3, the “palmitoylation of GOLPH3 mutants” value in data set [4] is “modest effect”. The “Golgi localization of GOLPH3 mutants” value in data set [3] is “increased Golgi localization”.

B4: D247R/D258R/D262R: recombinant GOLPH3 triple mutant D247R/D258R/D262R (protein, UniProt Q9H4A6 1-298, looked up, variant D247R D258R D262R)
Golgi phosphoprotein 3: MTSLTQRSSGLVQRRTEASRNAADKERAAGGGAGSSEDDAQSRRDEQDDDDKGDSKETRLTLMEEVLLLGLKDREGYTSFWNDCISSGLRGCMLIELALRGRLQLEACGMRRKSLLTRKVICKSDAPTGDVLLDEALKHVKETQPPETVQNWIELLSGETWNPLKLHYQLRNVRERLAKNLVEKGVLTTEKQNFLLFDMTTHPLTNNNIKQRLIKKVQEAVLDKWVNDPHRMDRRLLALIYLAHASRVLENAFAPLLREQYRLATKRVRQLLDLDPEVECLKANTNEVLWAVVAAFTK
B4: the “binding of GOLPH3 mutants to LCS” value in data set [1] is given as “weaken or abrogate binding”. In data set [5], the “Tm / melting temperature” value was found to be 57 °C. In addition, in data set [2], the “% alpha” value was 38%, the “% beta parallel” value amounted to 0%, the “% beta-antiparallel” value was 7% and the “% others” value turned out to be 40%. Moreover, the “% turn” value in data set [2] turned out to be 15%.

B5: D247R: recombinant GOLPH3 mutant D247R (protein, UniProt Q9H4A6 1-298, looked up, variant D247R)
Golgi phosphoprotein 3: MTSLTQRSSGLVQRRTEASRNAADKERAAGGGAGSSEDDAQSRRDEQDDDDKGDSKETRLTLMEEVLLLGLKDREGYTSFWNDCISSGLRGCMLIELALRGRLQLEACGMRRKSLLTRKVICKSDAPTGDVLLDEALKHVKETQPPETVQNWIELLSGETWNPLKLHYQLRNVRERLAKNLVEKGVLTTEKQNFLLFDMTTHPLTNNNIKQRLIKKVQEAVLDKWVNDPHRMDRRLLALIYLAHASRVLENAFAPLLDEQYDLATKRVRQLLDLDPEVECLKANTNEVLWAVVAAFTK
Regarding B5, the “binding of GOLPH3 mutants to LCS” value in data set [1] is recorded as “reduced binding; also recorded: weaken or abrogate binding”. In addition, the “Tm / melting temperature” value in data set [5] was 57 °C. Further, in data set [2], the “% alpha” value worked out at 38%, the “% beta parallel” value was 0%, the “% beta-antiparallel” value was 0% and the “% others” value was 52%. In data set [2], the “% turn” value is 10%.

B6: D247A/D258A/D262A: GOLPH3 triple mutant D247A/D258A/D262A; recombinant in biophysics, transfected in cells (protein, UniProt Q9H4A6 1-298, looked up, variant D247A D258A D262A)
Golgi phosphoprotein 3: MTSLTQRSSGLVQRRTEASRNAADKERAAGGGAGSSEDDAQSRRDEQDDDDKGDSKETRLTLMEEVLLLGLKDREGYTSFWNDCISSGLRGCMLIELALRGRLQLEACGMRRKSLLTRKVICKSDAPTGDVLLDEALKHVKETQPPETVQNWIELLSGETWNPLKLHYQLRNVRERLAKNLVEKGVLTTEKQNFLLFDMTTHPLTNNNIKQRLIKKVQEAVLDKWVNDPHRMDRRLLALIYLAHASAVLENAFAPLLAEQYALATKRVRQLLDLDPEVECLKANTNEVLWAVVAAFTK
B6: in data set [2], the “% alpha” value was determined as 40%, the “% beta parallel” value is reported as 0%, the “% beta-antiparallel” value was determined as 0% and the “% others” value is 47%. Moreover, the “% turn” value in data set [2] stood at 13%.

B7: C122A: GOLPH3 S-acylation mutant C122A, transfected construct (protein, UniProt Q9H4A6 1-298, looked up, variant C122A)
Golgi phosphoprotein 3: MTSLTQRSSGLVQRRTEASRNAADKERAAGGGAGSSEDDAQSRRDEQDDDDKGDSKETRLTLMEEVLLLGLKDREGYTSFWNDCISSGLRGCMLIELALRGRLQLEACGMRRKSLLTRKVIAKSDAPTGDVLLDEALKHVKETQPPETVQNWIELLSGETWNPLKLHYQLRNVRERLAKNLVEKGVLTTEKQNFLLFDMTTHPLTNNNIKQRLIKKVQEAVLDKWVNDPHRMDRRLLALIYLAHASDVLENAFAPLLDEQYDLATKRVRQLLDLDPEVECLKANTNEVLWAVVAAFTK
Regarding B7, the “palmitoylation of GOLPH3 mutants” value in data set [4] is given as “modest effect”. Besides, the “Golgi localization of GOLPH3 mutants” value in data set [3] was “increased Golgi localization”.
